Laboratory results taken from US20260265372A1 (TECHNION RESEARCH AND DEVELOPMENT FOUNDATION, published 2026).

T1: D2 domain of human LAG-3 (human, UniProt P18627 169-260)
T1 sequence: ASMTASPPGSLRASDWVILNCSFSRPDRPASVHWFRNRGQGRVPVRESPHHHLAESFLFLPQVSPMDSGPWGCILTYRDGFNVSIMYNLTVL


What was measured:
D2 domain of human LAG-3 = molecular target: T1, D2 domain of human LAG-3; test: not described
[1] = molecular target: HA glycoprotein of A/Puerto Rico/8/1934 (H1N1) influenza virus, purified (influenza virus A/Puerto Rico/8/1934 …, UniProt P03452 18-528); test: ELISA, plate coated with the fusion protein

| Binder | binding result (D2 domain of human LAG-3) | binding result [1] |
| --- | --- | --- |
| 23DKTYB4 (antibody, V domains shown) VH: QVQLKQSDDELVKPGASVKISCKVSGYTFTDHTIHWMKQRPEQGLEWIGYIYPRDGSTKYNEKFKGKATLTADKSSSTAYMQLNSLTSEDSAVYFCARRRSYYGSSFYFDVWGTGTTVSV VL: DIQMTQSTSSLSASLGDRVTISCRASQDISNYLNWYQQKPDGTVKLLIYYTSRLHSGVPSRFSGSGSGTDYSLTISNLEQEDIATYFCQQGNTLPWTFGGGTK | binds |  |
| 23DKTYB19 (antibody, V domains shown) VH: QVQLKQSDAELVKPGASVKISCKVSGYTFTDHTIHWMKQRPEQGLEWIGYIYPRDGSTKYNEKFKGKATLTADKSSSTAYMQLNSLTSEDSAVCFCARTGSYAMDYWGQGTSVTVSS VL: DIVMTQSPASLAVSLGQRATISCKASQSVDYDGDSYMNWYQQKPGQPPKLLIYAASNLESGIPARFSGSGSGTDFTLNIHPVEEEDAATYYCQQSNEDPYTFGG | binds |  |
| KIR2DL1 fused to the IgG1 Fc domain (Fc fusion) HEGVHRKPSLLAHPGRLVKSEETVILQCWSDVMFEHFLLHREGMFNDTLRLIGEHHDGVSKANFSISRMTQDLAGTYRCYGSVTHSPYQVSAPSDPLDIVIIGLYEKPSLSAQLGPTVLAGENVTLSCSSRSSYDMYHLSREGEAHERRLPAGPKVNGTFQADFPLGPATHGGTYRCFGSFHDSPYEWSKSSDPLLVSVTGNPSNSWPSPTEPSSKTGNPRHLH |  | no binding |
